Experimental data reported in patent US20210301005A1 (Genentech, published 2021).
Where two headings read alike, the source gives them in different places.

Assays:
[1] = target: T1, human TGFβ3, mature dimeric form (human, UniProt P10600 301-412); assay: SPR
T1 construct: Peprotech, expressed in E. coli; also called TGFb3
T1 sequence: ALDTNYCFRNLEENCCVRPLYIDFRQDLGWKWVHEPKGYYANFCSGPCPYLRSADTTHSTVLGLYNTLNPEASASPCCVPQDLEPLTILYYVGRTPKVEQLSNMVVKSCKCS

[2] = target: T2, human TGFβ2, mature receptor-binding domain (human, UniProt P09858 303-414 (pig entry), The mature TGFβ2 is a disulfide-linked homodimer of this 112-residue chain. The 4A11 epitope spans both monomers (p-1207).); assay: SPR
T2 construct: Peprotech; also called TGFb2
T2 sequence: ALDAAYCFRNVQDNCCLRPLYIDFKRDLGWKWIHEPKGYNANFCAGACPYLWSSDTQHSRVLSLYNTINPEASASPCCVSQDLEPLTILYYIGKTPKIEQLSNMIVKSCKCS

[3] = target: T1, human TGFβ3, mature dimeric form; assay: SPR; remark: listed apart in the source
[4] = target: T2, human TGFβ2, mature receptor-binding …; assay: BIAcore T200
In short: (§1)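 SPR kinetics on protein A-captured humanized 2A10 variants (~100 RU), with 3-fold serial dilutions of TGFβ (0.02 nM to 5 nM) injected in HBS-EP, pH 7.4, at 25° C and 50 μl/min. kon and koff from a 1:1 Langmuir fit; KD = koff/kon.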

[5] = target: T1, human TGFβ3, mature dimeric form; assay: BIAcore T200
In short: as §1

[6] = target: T2, human TGFβ2, mature receptor-binding …; assay: BIAcore T200; remark: listed apart in the source
Method: (§2) For binding affinity determinations of all humanized 2A10 antibodies, Surface Plasmon Resonance (SPR) measurement with a BIAcore™-T200 instrument was used. Briefly, series S CM5 biosensor chip with protein A was first applied to capture each humanized 2A10 variant to achieve approximately 100 response units (RU) on each flow cell, following by injection of 3-fold serial dilutions of human TGFβ1, TGFβ2 or TGFβ3 (0.02 nM to 5 nM) in HBS-EP buffer (0.01M HEPES pH 7.4, 0.15M NaCl, 3 mM EDTA and 0.05% v/v surfactant P20) at 25° C. with a flow rate of 50 μl/min for kinetics measurement. Association rates (ko.) and dissociation rates (koff) were calculated using a simple one-to-one Langmuir binding model (BIAcore T200 evaluation software version 2.0) to determine the equilibrium dissociation constant (KD), which was calculated as the ratio koff/kₒₙ.

[7] = target: T1, human TGFβ3, mature dimeric form; assay: BIAcore T200; remark: listed apart in the source
Method: as §2

[8] = target: T1, human TGFβ3, mature dimeric form; assay: cell-based or functional assay
[9] = target: T3, human TGFβ1, mature receptor-binding domain (human, UniProt P01137 279-390); assay: cell-based or functional assay
[10] = target: T2, human TGFβ2, mature receptor-binding …; assay: cell-based or functional assay
[11] = target: T1, human TGFβ3, mature dimeric form; assay: cell-based or functional assay; remark: listed apart in the source
[12] = target: T3, human TGFβ1, mature receptor-binding …; assay: cell-based or functional assay; remark: listed apart in the source
[13] = target: T2, human TGFβ2, mature receptor-binding …; assay: cell-based or functional assay; remark: listed apart in the source
[14] = target: T1, human TGFβ3, mature dimeric form; assay: cell-based or functional assay; remark: listed apart in the source
[15] = target: T3, human TGFβ1, mature receptor-binding …; assay: cell-based or functional assay; remark: listed apart in the source
[16] = target: T2, human TGFβ2, mature receptor-binding …; assay: cell-based or functional assay; remark: listed apart in the source
[17] = target: T1, human TGFβ3, mature dimeric form; assay: cell-based or functional assay; remark: listed apart in the source
[18] = target: T3, human TGFβ1, mature receptor-binding …; assay: BIAcore T200; humanization BIAcore study (Tables 9 and 11), bound only
[19] = target: T3, human TGFβ1, mature receptor-binding …; assay: SPR; Table 4 screening SPR, affinity at 25 C; no blocking of TGFb1 (>500 nM at 37 C)
[20] = target: T3, human TGFβ1, mature receptor-binding …; assay: BIAcore T200
Method: as §2

[21] = target: T2, human TGFβ2, mature receptor-binding …; assay: BIAcore T200; remark: listed apart in the source
Method: as §2

[22] = target: T1, human TGFβ3, mature dimeric form; assay: BIAcore T200; remark: listed apart in the source
Method: as §2

[23] = target: T3, human TGFβ1, mature receptor-binding …; assay: cell-based or functional assay; remark: listed apart in the source
[24] = target: T2, human TGFβ2, mature receptor-binding …; assay: cell-based or functional assay; remark: listed apart in the source
[25] = target: T1, human TGFβ3, mature dimeric form; assay: cell-based or functional assay; remark: listed apart in the source

T3 sequence (P01137 279-390 limits assumed): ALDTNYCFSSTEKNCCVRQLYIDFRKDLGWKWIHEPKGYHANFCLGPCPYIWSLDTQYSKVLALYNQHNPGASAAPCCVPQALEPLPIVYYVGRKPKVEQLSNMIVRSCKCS

B1: 2A10 (antibody, V domains shown)
VH: EVQLVESGGGLVQPKGSLKLSCAASGFDFNSYGMSWVRQAPGKGLDLVADIVSKTYNYTTYYSDSVKDRFTISRDDSQSMVYLQMDNLKTEDTALYYCTVAPGGSFDYWGQGVMVTVSS
VL: DIVLTQSPALAVSLGQRATISCRASQSVSISRFNLMHWYQHKPGQQPKLLIYRASNLASGIPARFSGSGSGTDFTLTINPVQADDLATYYCQHSRESPWTFGGGTKLEIK
notes: anti-TGFβ3; also called rat 2A10; r2A10
[1]
  Kd: < 0.01 nM
[2]
  Kd: 0.046 nM
[3]
  Kd: < 0.002 nM
[4]
  Kd: 0.0628 nM
[5]
  Kd: 0.0012 nM
[6]
  Kd: 0.0628 nM
[7]
  Kd: 0.0012 nM
[8]
  cell-based IC50: < 0.25 nM
[9]
  Blocking IC50: > 500 nM
[10]
  Blocking IC50: 193 nM
[11]
  Blocking IC50: 0.02 nM
[12]
  HEKBlue TGFβ blocking IC50: > 200 nM
[13]
  HEKBlue TGFβ blocking IC50: 70 nM
[14]
  HEKBlue TGFβ blocking IC50: 0.01 nM
[15]
  HEKBlue TGFβ blocking IC50: > 200 nM
[16]
  HEKBlue TGFβ blocking IC50: 70 nM
[17]
  HEKBlue TGFβ blocking IC50: 0.01 nM
[18]
  Kd: > 5 nM
[19]
  Kd: 1.6 nM

B2: h2A10.v2 (antibody, human IgG1, kappa, N297G)
heavy: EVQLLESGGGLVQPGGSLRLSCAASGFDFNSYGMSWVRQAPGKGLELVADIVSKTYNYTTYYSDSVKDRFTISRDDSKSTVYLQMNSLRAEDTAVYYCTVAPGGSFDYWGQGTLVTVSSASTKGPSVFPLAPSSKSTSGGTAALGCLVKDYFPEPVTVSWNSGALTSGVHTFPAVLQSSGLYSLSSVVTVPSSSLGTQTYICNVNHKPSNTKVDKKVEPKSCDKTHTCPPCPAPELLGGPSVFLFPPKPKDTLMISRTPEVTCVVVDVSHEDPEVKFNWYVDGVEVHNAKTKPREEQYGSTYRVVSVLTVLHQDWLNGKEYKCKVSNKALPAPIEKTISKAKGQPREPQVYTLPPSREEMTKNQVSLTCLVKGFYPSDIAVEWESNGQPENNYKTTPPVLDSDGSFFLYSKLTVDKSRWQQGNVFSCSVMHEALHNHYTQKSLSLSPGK
light: DIQLTQSPSSLSASVGDRVTITCRASQSVSISRFNLMHWYQHKPGKQPKLLIYRASNLASGIPSRFSGSGSGTDFTLTISSLQPEDFATYYCQHSRESPWTFGGGTKVEIKRTVAAPSVFIFPPSDEQLKSGTASVVCLLNNFYPREAKVQWKVDNALQSGNSQESVTEQDSKDSTYSLSSTLTLSKADYEKHKVYACEVTHQGLSSPVTKSFNRGEC
notes: also called humanized 2A10 version 2
[4]
  Kd: 0.314 nM
[5]
  Kd: 0.0013 nM
[20]
  Kd: > 5 nM
[21]
  Kd: 0.314 nM
[22]
  Kd: 0.0013 nM
[12]
  HEKBlue TGFβ blocking IC50: > 200 nM
[13]
  HEKBlue TGFβ blocking IC50: > 200 nM
[14]
  HEKBlue TGFβ blocking IC50: 0.01 nM
[23]
  HEKBlue TGFβ blocking IC50: > 200 nM
[24]
  HEKBlue TGFβ blocking IC50: > 200 nM
[25]
  HEKBlue TGFβ blocking IC50: 0.01 nM
